Here are results for 2 substances from patent US20050222009A1, “Dual phase - PNA conjugates for the delivery of PNA through the blood brain barrier” (priority 2003, published 2005).

The data set has as its system PC12 cells. Description: Measurement of cellular toxicity by neutral red uptake. The data set is classed as cell-based, rat. Conditions: 48 hours incubation (FIG. 2); compared with control PNA. The procedure: As an in vitro models for neurons and for BBB we used the human neuroblastoma NMB cell line the rat catecholaminergic cell line PC12 and the mice brain-derived endothelial cell line bEND. NMB cells were adapted to grow in Dulbecco modified Eagle medium (DMEM) with 10% Hyclone calf serum (Simantov et al., 1996). PC12 cells were grown in DMEM, 10% horse serum and 5% calf serum. bEND3 cells were grown in DMEM, %10 calf serum supplemented with 2 mM glutamine. Cells were maintained in a 10% CO2 humidified incubator at 37° C. Cells were routinely sub-cultured every four to five days. When cells (5×10^3) were plated in 96 wells, dishes were pretreated with poly-L-ornithine.
PC12 cells were incubated with PNA or peptide-PNA conjugates for 48 hours. At the end of the incubation, cell morphology was examined by light microscopy. Medium was replaced with medium containing neutral red. Neutral-red uptake was determined by spectrophotometer and was used as an index for cellular toxicity (FIG. 2).

As for “CHK6HC-TTT GCT CTT ACT CAT-HAIYPRH [KBP11]”, the “neutral red uptake to PC12 cells (index for cellular toxicity)” value is on record as “no significant difference”.
In the case of “CHK6HC-TTT GCT CTT ACT CAT-THRPPMWSPVWP [KBP10]” it was “no significant difference”.
